Data on eight molecules can be found in patent EP4628892A1 (Korea Research Institute of Bioscience and Biotechnology, dated 2025).

T1: hNgR1-his (human, UniProt Q9BZR6 27-447, limits assumed)
T1 construct: Soluble antigen flowed over antibodies captured on Protein A chips; also called antigen protein (hNgR1-his); the antigen; not shown: histidine tag
T1 sequence (looked up): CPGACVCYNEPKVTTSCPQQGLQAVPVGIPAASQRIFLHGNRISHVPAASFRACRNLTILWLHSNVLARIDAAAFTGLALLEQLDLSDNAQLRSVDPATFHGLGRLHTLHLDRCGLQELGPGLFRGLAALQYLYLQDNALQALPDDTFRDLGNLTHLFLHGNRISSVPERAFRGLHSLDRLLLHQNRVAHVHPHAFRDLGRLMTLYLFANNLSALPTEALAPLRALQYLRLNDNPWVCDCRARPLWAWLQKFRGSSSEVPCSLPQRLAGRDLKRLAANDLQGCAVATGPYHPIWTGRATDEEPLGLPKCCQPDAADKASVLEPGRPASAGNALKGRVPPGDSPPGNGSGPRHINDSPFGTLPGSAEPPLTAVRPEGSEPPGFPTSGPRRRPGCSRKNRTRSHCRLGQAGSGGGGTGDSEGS

B1: H6HE2L antibody (antibody, human IgG1, kappa, V domains shown)
VH: QMQLVQSGGGLEQPGRSLRLSCVTSGFNFNDYAMHWVRQAPGKGLEWVSGISWNSGAIGYADSVKGRFTVSRDNSKNSLYLQMNSLRAEDTAVYYCARDYNYETSGYYHGFDNWGQGTLVTVSS
VL: DIQMTQSPSSVSASVGDRVTITCRASQGISRWLSWYQQKPGKAPKLLIYAASNLQSGVPLRFSGSGSGTDFTLTINSLQPEDSATYYCQQTNNFPYTFGQGTKVEIKR
notes: Optimized from CSA108
B2: CSA123 antibody (antibody, human IgG1, kappa, V domains shown)
VH: QMQLVQSGAEVKKPGASVKVSCKVSGYTLSELSIHWVRQAPGKGLEWMGGFDPEDDETVYAQKFQGRVTLTDDTSTDTAYMELSSLRSEDTAVYYCARDLGYLTSGNYYDAFDIWGRGTMITVSS
VL: B1 VL with G28D, S30N, S34A, N53R, Y96R, K103R, V104L
notes: also called anti-NgR1 antibody CSA123
B3: C1HE2E6 antibody (antibody, human IgG1, kappa, V domains shown)
VH: B1 VH with T104I, H109Y
VL: B1 VL with S67F
notes: Optimized from CSA108
B4: S6 antibody (antibody, human IgG1, kappa, V domains shown)
VH: B2 VH with E31G, P53S
VL: B1 VL with G28D, S30N, S34A, N53R, Y96R, K103R, V104L
notes: Optimized from CSA123
B5: CSA108 antibody (antibody, human IgG1, kappa, V domains shown)
VH: B1 VH with N101Y, H109Y
VL: B1 VL with S34A
notes: also called anti-NgR1 antibody CSA108
B6: D11 antibody (antibody, human IgG1, kappa, V domains shown)
VH: B2 VH with P53S, I114F
VL: B1 VL with G28D, S30N, S34A, N53R, Y96R, K103R, V104L
notes: Optimized from CSA123
B7: G8 antibody (antibody, human IgG1, kappa, V domains shown)
VH: B2 VH with T28P, P53S, D113G
VL: B1 VL with G28D, S30N, S34A, N53R, Y96R, K103R, V104L
notes: Optimized from CSA123
B8: S3 antibody (antibody, human IgG1, kappa, V domains shown)
VH: B2 VH with D110N, D113G
VL: B1 VL with G28D, S30N, S34A, N53R, Y96R, K103R, V104L
notes: Optimized from CSA123

Substitutions are numbered along the chain they refer to.

The target of the assay is T1, hNgR1-his. As to the kind of experiment: SPR, Biacore T200; IgG1 captured on Protein A chip, hNgR1-his flowed at different concentrations.
In general, Kd refers to the equilibrium constant for the complex coming apart. B1: the Kd was determined as 1.69 nM. That is a single-digit nanomolar value.

In turn, B2 came in with a Kd of 31.5 nM. This Kd lies about 19-fold higher than the previous one.

In turn, B3 displayed an equilibrium dissociation constant (Kd) of 0.194 nM.

In turn, B4 gave a Kd of 5.51 nM. This Kd is about 28-fold higher than that of the molecule before.

On to B5, for which the affinity, expressed as Kd, was 23.3 nM.

Molecule B6 displayed a dissociation constant Kd of 5.33 nM.

B7 came in with a Kd of 4.15 nM. The Kd values of the last two molecules are within 1.5-fold of each other.

B8: binding was characterised by a dissociation constant (Kd) of 5.84 nM.
